The target in one assay is T1, 重组表达的PSMA胞外区蛋白 (UniProt Q04609 44-750, limits assumed).
T1 construct: extracellular domain; also called 前列腺特异性膜抗原膜外区; PSMA抗原; not shown: His tag (purified with HisTrap FF Crude, detected with anti-His antibody)
Kind of assay: indirect phage-ELISA, PSMA extracellular region coated at 5 μg/mL, HRP-anti-M13 detection. A general note: An ELISA detects its analyte on a solid surface through an enzyme-linked reagent.

The target of assay [1] is T2, 前列腺特异性膜抗原 (PSMA) on LNCaP cells (UniProt Q04609 1-750, limits assumed).
T2 construct: whole, on cells; Endogenous PSMA on fixed LNCaP cells; also called prostate specific membrane antigen; LNCaP细胞(表达PSMA)
T2 sequence (Q04609 whole entry): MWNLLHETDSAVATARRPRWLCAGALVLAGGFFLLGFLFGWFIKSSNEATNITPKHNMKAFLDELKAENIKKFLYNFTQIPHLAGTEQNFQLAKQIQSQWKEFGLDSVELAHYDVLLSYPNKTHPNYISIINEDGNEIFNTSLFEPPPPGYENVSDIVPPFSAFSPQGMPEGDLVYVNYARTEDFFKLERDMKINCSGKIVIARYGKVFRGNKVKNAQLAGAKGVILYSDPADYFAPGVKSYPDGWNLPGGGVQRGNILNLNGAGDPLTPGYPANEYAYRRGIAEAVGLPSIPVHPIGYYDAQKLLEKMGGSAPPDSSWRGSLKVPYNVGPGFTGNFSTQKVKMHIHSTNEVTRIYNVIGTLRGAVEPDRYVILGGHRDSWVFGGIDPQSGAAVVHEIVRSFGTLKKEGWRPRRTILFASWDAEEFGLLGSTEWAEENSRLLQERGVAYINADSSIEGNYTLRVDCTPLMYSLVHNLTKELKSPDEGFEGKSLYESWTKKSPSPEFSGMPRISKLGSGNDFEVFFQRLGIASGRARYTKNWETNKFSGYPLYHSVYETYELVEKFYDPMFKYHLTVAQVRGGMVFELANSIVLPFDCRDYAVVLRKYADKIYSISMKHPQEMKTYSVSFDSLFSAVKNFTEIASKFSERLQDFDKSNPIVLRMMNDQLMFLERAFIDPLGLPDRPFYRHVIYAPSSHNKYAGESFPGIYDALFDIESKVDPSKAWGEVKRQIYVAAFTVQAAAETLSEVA
Kind of assay: cell ELISA (OD450) and immunofluorescence on fixed LNCaP cells (PSMA+) against MKN45 cells (PSMA-), anti-M13 detection.

T1 sequence (Q04609 44-750 limits assumed): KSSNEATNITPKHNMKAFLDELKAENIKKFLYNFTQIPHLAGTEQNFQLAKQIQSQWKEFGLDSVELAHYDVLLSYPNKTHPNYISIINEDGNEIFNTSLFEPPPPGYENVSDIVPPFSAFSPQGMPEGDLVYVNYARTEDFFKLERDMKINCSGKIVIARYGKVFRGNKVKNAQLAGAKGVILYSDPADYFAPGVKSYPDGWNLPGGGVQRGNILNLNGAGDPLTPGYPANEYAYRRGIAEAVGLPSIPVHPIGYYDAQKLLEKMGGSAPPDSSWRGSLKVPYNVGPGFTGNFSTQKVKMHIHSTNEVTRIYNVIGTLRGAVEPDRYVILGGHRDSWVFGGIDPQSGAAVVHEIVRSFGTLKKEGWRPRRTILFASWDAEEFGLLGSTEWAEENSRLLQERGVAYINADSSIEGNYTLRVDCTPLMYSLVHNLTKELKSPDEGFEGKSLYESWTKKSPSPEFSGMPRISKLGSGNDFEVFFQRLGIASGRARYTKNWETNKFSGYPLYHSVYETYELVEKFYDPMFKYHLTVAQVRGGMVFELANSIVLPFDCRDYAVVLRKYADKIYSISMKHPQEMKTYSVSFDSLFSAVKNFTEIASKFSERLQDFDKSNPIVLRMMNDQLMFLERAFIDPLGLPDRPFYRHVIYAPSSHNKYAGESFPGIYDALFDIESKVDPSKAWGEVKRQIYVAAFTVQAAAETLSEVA

B1: 抗前列腺特异性膜抗原单域重链抗体噬菌体阳性克隆 (VHH)
VHH: QVQLVESGGGLVQAGDSLRLSCAASRRTFSFMAWYRQAPGKQRELVAAITSGGRNTNYADSVKGRFTISRDNAKNTMYLQMNSLKPEDTAVYYCNAAARWNNYWGQGTPVTVSS
notes: The phage coat protein fusion and any linker are not described; Selected from a naive camelid VHH phage display library; also called 针对前列腺特异性膜抗原的单域重链抗体阳性克隆; 展示本发明所述纳米抗体的噬菌体克隆
With B1, the binding result (with 重组表达的PSMA胞外区蛋白; in assay [1]) was “binds” each time.

For the origin of these results see patent CN105622755A (1ST AFFILIATED HOSPITAL OF 3RD MILITARY MEDICAL UNIV PLA, dated 2016).
